# Data as given in US8361728B2, “Method for diagnosis of glutamate dehydrogenase disorders” (priority 2008, dated 2013).
# Tested on: N
# Experiment: purified protein, by the assay type
# Sequence of Ser445-hGDH2 (Homo sapiens) (chain, as listed by the source): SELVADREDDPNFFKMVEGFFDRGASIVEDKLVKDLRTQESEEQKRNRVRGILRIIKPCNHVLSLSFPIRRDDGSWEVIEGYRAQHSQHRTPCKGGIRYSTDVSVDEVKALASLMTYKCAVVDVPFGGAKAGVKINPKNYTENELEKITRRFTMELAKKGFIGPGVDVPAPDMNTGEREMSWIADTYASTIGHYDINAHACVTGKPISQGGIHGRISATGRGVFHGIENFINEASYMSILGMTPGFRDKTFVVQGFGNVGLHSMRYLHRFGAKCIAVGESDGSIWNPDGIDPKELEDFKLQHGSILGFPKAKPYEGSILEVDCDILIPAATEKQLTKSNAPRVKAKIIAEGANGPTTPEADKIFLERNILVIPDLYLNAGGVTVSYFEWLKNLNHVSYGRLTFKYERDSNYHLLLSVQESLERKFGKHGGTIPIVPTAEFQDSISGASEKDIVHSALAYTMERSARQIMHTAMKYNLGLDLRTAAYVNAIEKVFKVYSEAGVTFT
# Sequence of Ala445-hGDH2 (Homo sapiens; S498A) (chain, as listed by the source S498A): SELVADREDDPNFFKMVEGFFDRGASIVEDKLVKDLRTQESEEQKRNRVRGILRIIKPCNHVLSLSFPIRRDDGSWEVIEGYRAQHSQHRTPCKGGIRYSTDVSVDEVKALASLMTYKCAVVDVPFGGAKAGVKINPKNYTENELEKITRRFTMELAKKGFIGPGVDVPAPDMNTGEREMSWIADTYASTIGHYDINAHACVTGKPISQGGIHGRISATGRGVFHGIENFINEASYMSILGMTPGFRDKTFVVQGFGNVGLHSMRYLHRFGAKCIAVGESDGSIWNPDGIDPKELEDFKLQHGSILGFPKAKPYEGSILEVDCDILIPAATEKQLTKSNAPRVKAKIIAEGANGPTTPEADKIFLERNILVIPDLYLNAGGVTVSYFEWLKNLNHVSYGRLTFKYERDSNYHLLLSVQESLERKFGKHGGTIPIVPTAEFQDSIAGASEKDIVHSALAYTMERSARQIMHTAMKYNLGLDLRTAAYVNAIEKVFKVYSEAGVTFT
row,Substance,Km [mM]
1,Ala445-hGDH2 (Homo sapiens; S498A),21.36 ± 3.56
2,hGDH1 (Homo sapiens),13.39 ± 0.72
3,Ser445-hGDH2 (Homo sapiens),17.05 ± 2.01
